Tests used:
Assay in all cases: Biacore (SPR), tau peptide
[1] = molecular target: T1, Tau379-408
T1 construct: 30 amino acid synthetic peptide, not phosphorylated; also called Tau 379-408 (Ser396/Ser404)

[2] = molecular target: T2, Tau386-408 [P-Ser396/404] (phosphoserine at positions 11 and 19 (Ser396 and Ser404 of Tau))
T2 construct: 23 amino acid peptide; also called Tau 386-408 (PSer396/PSer404)

[3] = molecular target: Tau386-408 [P-Ser404] (phosphoserine at Ser404 of Tau (position 19 of SEQ ID NO:7))
[4] = molecular target: T3, Tau379-408 [P-Ser396/404] (phosphoserine at Ser396 and Ser404 (Tau numbering, SEQ ID NO:1))
T3 construct: 30 amino acid synthetic peptide; also called Tau 379-408 (PSer396/PSer404)
T3 sequence (peptide, as listed by the source): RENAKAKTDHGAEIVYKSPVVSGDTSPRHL

Tau386-408 [P-Ser404] (phosphoserine at Ser404 of Tau (position 19 of SEQ ID NO:7)), sequence (peptide, as listed by the source): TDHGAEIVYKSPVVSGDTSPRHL

B1: Antibody 4E6G7 (antibody, V domains shown)
VH: VQLQQSGAELVQPGASVKLSCTASGFNIKDTSMHWVRQRPEQGLEWIGRIAPANGNTKYDPKFQGKATITTDTSSNTAYLQLSSLTSEDTAVYYCSGSGNYDWGQGTTLTVS
VL: DIQMNQSPSSLSASLGDTITISCHASQNINVWLSWYQQKPGNIPKLLIFEASTLYTGVPSRFSGSGSGTGFTLTISSLQPEDIATYYCQQGQSYPWTFGGGTKLEIKR
notes: constant regions are not
B1 was tested. Which Kd [1] did it give?
Its Kd is 212 nM.

And the Kd [2]?
Its Kd is 469 nM.

What about the Kd [3] of the same binder?
Its Kd is 278 nM.

What about the Kd [4] of the same binder?
Its Kd is 271 nM.

Reference: patent publication US20180312608A1 (NEW YORK UNIVERSITY, published 2018)
